Results published in article PMC7010799.

How the values were obtained:
[1] = biological target: human NatA complex (hNAA15/hNAA10) (human) (UniProt Q9BXJ9); experiment: ITC; MicroCal iTC200, 20 °C; 25 mM HEPES pH 7.0, 200 mM NaCl, 1 mM DTT; 15 μM hNatA or hNatE in the cell, 150 μM MBP-HYPK in the syringe
[2] = biological target: human NatA complex (hNAA15/hNAA10) (human) (UniProt Q9BXJ9)

human NatA complex (hNAA15/hNAA10) (human), sequence (Q9BXJ9 whole entry, chain 1 of 2): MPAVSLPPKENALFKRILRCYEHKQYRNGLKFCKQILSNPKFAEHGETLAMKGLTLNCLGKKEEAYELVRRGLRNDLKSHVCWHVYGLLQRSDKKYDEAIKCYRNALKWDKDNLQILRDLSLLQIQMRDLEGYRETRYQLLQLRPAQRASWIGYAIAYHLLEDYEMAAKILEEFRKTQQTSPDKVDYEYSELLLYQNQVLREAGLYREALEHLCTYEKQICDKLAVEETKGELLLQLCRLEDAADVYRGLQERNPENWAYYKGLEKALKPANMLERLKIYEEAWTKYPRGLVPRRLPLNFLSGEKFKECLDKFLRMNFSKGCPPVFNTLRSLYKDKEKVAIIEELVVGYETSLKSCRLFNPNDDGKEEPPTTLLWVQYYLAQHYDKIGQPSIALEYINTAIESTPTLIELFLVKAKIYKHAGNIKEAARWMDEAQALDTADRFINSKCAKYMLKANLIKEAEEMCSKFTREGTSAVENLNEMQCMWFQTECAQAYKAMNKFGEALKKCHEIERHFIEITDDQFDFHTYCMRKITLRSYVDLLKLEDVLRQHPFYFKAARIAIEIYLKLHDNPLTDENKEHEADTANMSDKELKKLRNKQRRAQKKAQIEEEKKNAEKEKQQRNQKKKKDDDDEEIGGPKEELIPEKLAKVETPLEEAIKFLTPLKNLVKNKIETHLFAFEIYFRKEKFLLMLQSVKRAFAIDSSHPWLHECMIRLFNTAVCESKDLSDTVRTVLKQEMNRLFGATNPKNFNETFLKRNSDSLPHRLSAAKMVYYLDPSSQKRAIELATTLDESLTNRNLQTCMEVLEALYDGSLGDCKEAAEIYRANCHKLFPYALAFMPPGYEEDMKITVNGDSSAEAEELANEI
human NatA complex (hNAA15/hNAA10) (human), sequence (P41227 whole entry, chain 2 of 2, further chain): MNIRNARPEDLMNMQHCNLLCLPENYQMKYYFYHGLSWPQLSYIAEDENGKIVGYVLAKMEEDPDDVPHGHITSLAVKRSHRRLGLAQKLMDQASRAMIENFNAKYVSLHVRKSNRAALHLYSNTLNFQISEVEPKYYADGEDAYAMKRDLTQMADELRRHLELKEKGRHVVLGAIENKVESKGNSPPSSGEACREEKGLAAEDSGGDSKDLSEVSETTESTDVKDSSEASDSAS
maltose-binding protein (MBP) tagged HYPK (from UniProt Q9NX55 1-121) (natural protein; other documents disagree on this pair), sequence (Q9NX55 whole entry): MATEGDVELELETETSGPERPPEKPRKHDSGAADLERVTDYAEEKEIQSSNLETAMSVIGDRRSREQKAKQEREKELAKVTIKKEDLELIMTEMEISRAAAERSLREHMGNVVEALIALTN
maltose-binding protein (MBP) tagged HYPK (from UniProt Q9NX55 1-121) (natural protein), sequence (Q9NX55 whole entry): as above

Kd [1] [nM]	inhibition of hNatA (100 nM) acetylation activity against SASE peptide, MBP-HYPK titrated [2] [%]	Substance
29.9	–	maltose-binding protein (MBP) tagged HYPK (from UniProt Q9NX55 1-121) (natural protein; other documents disagree on this pair)
–	90	maltose-binding protein (MBP) tagged HYPK (from UniProt Q9NX55 1-121) (natural protein)
